According to patent US20050239704, “Compositions and methods for affecting virulence determinants in bacteria” (published 2005):

Molecular target: SarR (Staphylococcus aureus, UniProt Q2FEJ8 SEQ:1-115)
Test: footprint; protected region nt 81-108 within the 109-bp fragment
Details: tags: untagged, pET11b expressed in E. coli BL21(DE3)pLysS; chain copies: 2 (inferred)

Sequence of SarR (Q2FEJ8 whole entry, the tested form may be a part): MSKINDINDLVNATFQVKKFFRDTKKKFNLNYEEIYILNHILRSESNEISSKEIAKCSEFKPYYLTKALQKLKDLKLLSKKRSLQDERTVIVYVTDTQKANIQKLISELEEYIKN

B1: sarA P2 protected region (nt 81-108) (dsDNA)
DNA 1: TAAATTAATGTTATTTTTTAATAATTTA
DNA 2: TAAATTATTAAAAAATAACATTAATTTA
Does B1 bind?
Result: binds
